Molecular target: untagged murine saposin A (SapA), wild type (murine)
Assay: crystal structure

stoichiometry N: 2
Substance: untagged murine saposin A (SapA), wild type (natural protein)

— paper doi:10.1101/112029
